The source of these data is publication PMC11779849.

Assay [1] deals with human P-cadherin K14E mutant ectodomain (EC1-5) (human). Briefly: single-molecule AFM force spectroscopy; biotinylated Pcad EC1-5 held by streptavidin on PEG tethers on both the cantilever and the glass substrate; no CQY684 (-CQY); tip retracted at 1 µm/s; Tris buffer pH 7.5, 10 mM Tris-HCl, 100 mM NaCl, 10 mM KCl, 2.5 mM CaCl2; peak forces from Gaussian fits of unbinding force histograms.

For assay [2] the target is unchanged. Description: single-molecule AFM force spectroscopy; as the -CQY experiment but with 40 nM CQY684 Fab in the buffer (+CQY); Pcad EC1-5 on cantilever and substrate; 1 µm/s; Tris buffer pH 7.5 with 2.5 mM CaCl2.
The target in assay [3] is human P-cadherin W2A mutant ectodomain (EC1-5) (human). Description: single-molecule AFM force spectroscopy; biotinylated Pcad EC1-5 held by streptavidin on PEG tethers on both the cantilever and the glass substrate; no CQY684 (-CQY); tip retracted at 1 µm/s; Tris buffer pH 7.5, 10 mM Tris-HCl, 100 mM NaCl, 10 mM KCl, 2.5 mM CaCl2; peak forces from Gaussian fits of unbinding force histograms.

Assay [4] has the same target. Description: single-molecule AFM force spectroscopy; as the -CQY experiment but with 40 nM CQY684 Fab in the buffer (+CQY); Pcad EC1-5 on cantilever and substrate; 1 µm/s; Tris buffer pH 7.5 with 2.5 mM CaCl2.

With “human P-cadherin K14E mutant ectodomain (EC1-5) (domain or fragment)”, the peak unbinding force in assay [1] is 33.1 pN. This substance returned a peak unbinding force (with 40 nM CQY684) in assay [2] of 31 pN.
For “human P-cadherin W2A mutant ectodomain (EC1-5) (domain or fragment)”, in assay [3], the peak unbinding force is 24.5 pN. In assay [4], the peak unbinding force, first Gaussian (with 40 nM CQY684) amounted to 35.1 pN and the peak unbinding force, second Gaussian (with 40 nM CQY684) was determined as 55.8 pN.
